Reference: the DeepSol protein solubility set

Assay: soluble on expression in E. coli; label from the status in PepcDB or PDB records

## MGSDKIHHHHHHMNWGKYATYSEDFFEKLTSESNQLDLYIFVQYLLHYQLSEAVDYCHQLGIALKGDIAIGIAHDSVDAWTHPELFHLDKQAGAPPDIFAVNGQNWGFPTYNWKKMAEDGYAWWKKRLTAMSNYFDAYRLDHILGFFRIWQMPEDSVRGLLGQFSPAIALSAEEIENSYGIPLRQWGLERFINPFIKDWVIDEIFGRDNRDWIIQTFLDYIGNGNYTFQNEYNNQKKVEKAQLEDWVREGLYKLHENIILLKDDENPEKYHPRISLIQTISFREFGDDYKGRLEKLYNDYFYGRNYEFWKEKAYEKLPVLKDATNMLACGEDLGMVPANVPDVMNHLNILRLIIERMPSDNRFVSPLNEVPYLSVLTTSSHDTSPLRAWWEENHEEIQRYYNEVMGWYGEAPYYASAEIIQEIVKRHLNSNAMMVILPIQDWLAMSEQLRKEDAKSEQINIPANPYHYWNYRLHCQLETLIDNQDWTEFLKKFIKESKRAY
  soluble on expression in E. coli: not soluble

## MGPTQETYTIVRYQSGTFSKQLDEIVTESPITIKLNGEEYVTVVCTPNYIEDMVIGFLISEGIISSYNDVEELWVQKDNGIVHVKSSKVNPLYQTLYNKRYVTSCCGKGRQGFIFVNDAAKAKDLHDIHVKITPEECFYLMNTLQQSSTTFRQTGGVHNTALCDRNKILLSRMDIGRHNALDKIYGHCLRNDISVKGKIIAFSGRISSEILLKVSKIGCEIVLSKSAPTKLALQLAHDLGITVVGFIRNESCNIYTHPHRIDGYQSNN
  soluble on expression in E. coli: not soluble

## MNNTIETILAHRSIRKFTAVPITDEQRQTIIQAGLAASSSSMLQVVSIVRVTDSEKRNELAQFAGNQAYVESAAEFLVFCIDYQRHATINPDVQADFTELTLIGAVDSGIMAQNCLLAAESMGLGGVYIGGLRNSAAQVDELLGLPENSAVLFGMCLGHPDQNPEVKPRLPAHVVVHENQYQELNLDDIQSYDQTMQAYYASRTSNQKLSTWSQEVTGKLAGESRPHILPYLNSKGLAKR
  soluble on expression in E. coli: soluble

## GFKVIMVTDVGGLGDKSFNDGTWAGIKQAAEELGIEAKVIQSYEQSDYIPNLSKAAEEADLVFAVGFMMTNDLFKVAKQYPDTYFVGIDITPPEGQILPNVLTFTFKEQEAAFLVGYVAAAMTKTGMVGFVGGIPIPPVERFRYGYEAGIKTYSVLHKKNVKILRGYTQDFEDPKKGKDLAMSQFAEGADIVFHASGACGNGVIEAAREKFSALAGSDKLVDLIDYYTTNGKGFFAIGVDMDQDYMAPGAVLTSAMKRVD
  soluble on expression in E. coli: soluble

## REEELNTEKVVAAIANPVENEVRKVWEDVVEKIEQRVAVIEQASHKLLQNKVSEEILSKAKVEAHKLAGSLGMFGSDEGSQIAQEIESLLDNGKKLKASGGKHLGQVVEALHQELENLKSG
  soluble on expression in E. coli: soluble

## MGSDKIHHHHHHMPINSFENYPMNWKPKRPSKGQILYKALAEQLEQDINNGFLLPGTKLPPQRELADFLDVNVSTISRAFKICEKKGLISGVTGSGTFVSYDTRSNLFLMSSNNKITFIEMGTMNPDFTLEEMNTLFKHIIKEIDFKTIFQYGQRDGAKWQKEAIAKLIYKAGLETTSDSLLPASGGQNAIVAILAGLFQHGDRIGVDPLTYPGIKTAAKMLGIQLIPIKQEDNEISEEGLLYACKNENIKGLYIIPDYQNPTTHIMSQNGRKMIANIASKYNLIVIEDAIHSLLNETHLNPVASYLPNQTIYITSLSKIIAPSLRLAYISTPKQYREALSSALYNINLSQSYFLTEIAYRMITSGEADKLINARRKSARRRNKIINQYLSGYNLLGNEECIFRWLILPDGIMAEKFEIQALKEGVQVYASERFAVGKEKPISAIRIAVCATESTEELKAGLSVLKRLLEEKK
  soluble on expression in E. coli: not soluble

## MAHHHHHHMSYSFVVVPPPVPAATPAFEAHVSTLLRHVPHPTFITCTSYSPYFTSAAAESLAAAADTADESANAMEASVTQQALSYLHQCVAADVGLVLTVTATRATSHAESVQSTQGGDQDSQQHPKQHTSSSSASMVPTTTTLTGASRGGTAAILADFIGRTSAAPATKLGTANSQEATRHRSRGLMVLRGDDGGYTRQCMIAAQKGGASASPPSLSPNPYVDFADGVDLLRFIHSTLRGRDGEAMCEITGDEPAGAAVCLCIGGYPQGHVLDRQWGADAATAAAVPSAQSPLPCQTLASLRFLDEVDTVFADTEAQLRRAQGTHSAPRPPSLESCVEAAEALFARLGAVRRLWTTPSYYPPSVRAACTRRTVANKVFLRPPGTRQCVADSAWDGCGSAGAHVVVTQVITSATEFFDYVEDIRNALRSSVPPARGVPCDRGRDGAAATEARGASVPCLQLRAASALPSSSPSLVIVPGLMAPLRAEQFLRSALQLKVIPSVPFQRALREYEGALHSAVETLRSAVSSNAIDVYAEAKERAEACFQEWMVAITVDIVRDLRARGYTHVNFSAFQYGCGDAVGCVVAALAAEGREEVVEEP
  soluble on expression in E. coli: not soluble

## MPESIFKQISLDILKLHRDSVYSLLATSGCNCQVHEAAYVNIDGKYYIALSCEPEVGEVKTGILLIEDESRNLRLSWVGSARELDCKDNAYKRALSALSRKLGRCKDRLHTAVQPFLLELVPEKGRFSVGDEEVWISRNDLVRALYPVGYSMRQAVFQI
  soluble on expression in E. coli: not soluble

## MSLNQPLLSVNNLTHLYAPGKGFSDVSFDLWPGEVLGIVGESGSGKTTLLKSISARLTPQQGEIHYENRSLYAMSEADRRRLLRTEWGVVHQHPLDGLRRQVSAGGNIGERLMATGARHYGDIRATAQKWLEEVEIPANRIDDLPTTFSGGMQQRLQIARNLVTHPKLVFMDEPTGGLDVSVQARLLDLLRGLVVELNLAVVIVTHDLGVARLLADRLLVMKQGQVVESGLTDRVLDDPHHPYTQLLVSSVLEGHHHHHH
  soluble on expression in E. coli: soluble

## MGSDKIHHHHHHVNIQEQFLGSGSRGSYELHLVDRRPKDVLEQAEALPFWKQDYTQLDKGAFSGAVTSVSCQGIQIFREKMNRAVDQLASAPADTYVIGLPTMIEGEATWGMLPVKQDSLITLNKNTELLFRTSHCSEIAAAVISAQRLEEYAALVEWVDLREIMRKVKAVEQISSTIANRLMTSLVGGTRYISDVHESASVKHMWPNFEEDLMSTCLQALVQAKDSINHHYDHRIHRYIVNRVRDFTLLNSCCPLTISELCIELRVSRRTLNHAFLRVLGITPVAYMRNVRLHRVRAELQSAPDSVTSIANVATKWGFWHMSLFSRYYRELFGECPNKTLERTRLHKA
  soluble on expression in E. coli: not soluble

## VELPTEYTEQFSSQPTLNSKPIIKFEFTGNSVDAPVLSMASKKFGIDFSILMSQIDYAGGVKFGFVIAEVEGDGEAITAAKCYLINNNVKVEVLGYVG
  soluble on expression in E. coli: not soluble

## MSTVVDQEGNNKQQTVAVIGAGIIGINCALELQSLGYQVTLLDKEGIGLGCSKANAGHFATEQVFPLAEFSLLWQMPKLLFDPLGPVALSAKHFIKAIPWFMQFFNNMRPTLRNKNKKALQALNKNAIHHYTALLKAAEAEHLISLDGSLLVFETNDRTKVELMYQHYLAAGIAVKLLDKRQTLELEPNLSNNINYSLYFTDVAHTIDPLALSKTLAEFAMCKGMTFQQTAVTSVTQTQSGVTVEIDEQHLHVDHCVIACGAWSKKLLNGLNYHLPIEAERGYSLSLPISAAASALLSRPVASAERRFIITPMGKTLRLAGTVEYAGLNAPANYKRAEMLKGNAAYILKRLPENEEKQEAWMGCRPSLPDSLPVICQAPNHDKIFFALGHQHLGLTQGAITGKLIGQLVTGHSPEINIDPFCIRRFNLEHHHHHH
  soluble on expression in E. coli: not soluble

## MITQVNQLDELQLKDLKTLRAECKKNDGSIPNLYIHILKQHRSLPTSFLYYQNGALIGFLSIYFFYDDAVEVAVLVSPQYRRQGIAKQLIKEALPLIKSQNYFNLIFSCPSRLNDNWLTSKGFTYLHSEYFMERDDLNPILDYIRPLSFRMATLEDIPILCGLDEVCFPDKNQDSVHRFQQILNEREYEIVIAMLNNHPIGKSHIRWQTKRATLSDIAILPKEQGKGFGSALIAHCINMILSEGKSRVDLDVETHNKKALNLYIQLGFHIQNACDYWSINVNQLAK
  soluble on expression in E. coli: not soluble

## MGSDKIHHHHHHMATRSATQPVSPQVARLARGLKLGANSMLVTLFGDVVAPRPQALWLGSLIRLAEPFGINDRLVRTATFRLTSDDWLNATRIGRRSYYGLSEAGLQRCLHAGKRIYAGDAPDWDGRWTLALVRGDARATIRQRLKRELLWEGFGAIAPGVYAHPNADANSLGEIIRAAHAQDFVAVMDATSLETFSIRPLQTLMHQTFKLGDVASAWQALLRRFSPVLADAHAMTPADAFFVRTLLLHEYRRVLLRDPNLPEQLLPTDWPGRTARDLCRDMYAALLDASEDYLREVVEVSEGTLANATRLLRRRFAMA
  soluble on expression in E. coli: not soluble
